Binding result and Kd data for five molecules are collected here from publication PMC3063405.

Data set [1] concerns the target T1, PUM2-HD (Pumilio-homology domain) (Homo sapiens, UniProt Q8TB72 706-1056). Nature of the data set: crystal structure.
Data set [2] deals with T2, PUM1-HD (Pumilio-homology domain) (Homo sapiens, UniProt Q14671 828-1176). Nature of the data set: crystal structure.
The target of data set [3] is T1, PUM2-HD (Pumilio-homology domain). The data set is described as follows: EMSA.
Data set [4] has as its target T2, PUM1-HD (Pumilio-homology domain). The data set is described as follows: EMSA. Background: In EMSA bound probe runs differently from free probe, usually more slowly.

T2 sequence (Q14671 828-1176): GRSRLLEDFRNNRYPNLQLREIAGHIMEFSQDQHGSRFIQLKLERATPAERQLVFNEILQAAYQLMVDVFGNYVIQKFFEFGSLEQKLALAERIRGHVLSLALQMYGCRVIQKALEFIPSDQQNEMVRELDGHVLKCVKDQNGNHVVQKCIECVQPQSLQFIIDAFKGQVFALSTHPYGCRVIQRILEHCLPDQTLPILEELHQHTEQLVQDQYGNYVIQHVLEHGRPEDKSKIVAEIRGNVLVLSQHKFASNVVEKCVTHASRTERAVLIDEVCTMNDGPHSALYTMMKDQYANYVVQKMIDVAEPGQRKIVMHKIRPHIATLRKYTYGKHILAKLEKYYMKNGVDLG
T1 sequence (Q8TB72 706-1056): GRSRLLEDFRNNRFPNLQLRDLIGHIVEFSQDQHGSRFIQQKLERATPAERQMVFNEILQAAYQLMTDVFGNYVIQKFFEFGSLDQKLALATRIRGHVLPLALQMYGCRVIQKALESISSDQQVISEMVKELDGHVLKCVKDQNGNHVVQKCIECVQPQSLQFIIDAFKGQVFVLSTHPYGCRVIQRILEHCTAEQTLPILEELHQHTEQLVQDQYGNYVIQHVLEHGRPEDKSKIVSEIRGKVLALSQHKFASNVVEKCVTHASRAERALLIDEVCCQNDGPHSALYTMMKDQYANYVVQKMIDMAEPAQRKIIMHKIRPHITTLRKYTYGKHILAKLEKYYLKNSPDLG

With UGUACAUC (ssRNA) [erk2 NRE], the binding result in data set [1] and in data set [2] was “binds” in each case.
For orientation: Kd means the equilibrium constant for the complex coming apart. Read a low Kd as tighter binding. UGUACAUA (ssRNA) [hb NRE2]: the Kd was determined as 0.07 ± 0.01 nM in data set [3] and 1.01 ± 0.05 nM in data set [4].
For UGUAUAUA (ssRNA) [hb NRE1], in that order: 0.36 ± 0.02 nM and 0.4 ± 0.01 nM.
In the case of UGUAAAUA (ssRNA) [p38α NREa], the Kd in data set [3] was 0.17 ± 0.02 nM; in data set [4], 0.91 ± 0.08 nM.
For UGUAGAUA (ssRNA) [p38α NREb], in that order: 0.08 ± 0.01 nM and 0.63 ± 0.01 nM.
